{
  "source": "paper PMC10661864",
  "biological_target": "AAV-DJ capsid proteins VP2 and VP3 (capsid shell) (adeno-associated virus, AAV-DJ (engineered capsid))",
  "assay": "co-sedimentation",
  "data": [
    {"substance": "AAV-DJ capsid protein VP1 (wild type) (natural protein)", "values": [
      {"measurement": "VP1 copies per 60-mer capsid (VP1 copies per 60-mer capsid)", "value": 3}
    ]}
  ]
}
